# In patent US10155985B2, “Evaluation of eosinophilic esophagitis” (CHILDREN'S HOSPITAL MEDICAL CENTER, priority 2004, dated 2018):
# B1: SEQ_ID_#978 (nucleic acid, listed as Homo sapiens)
# DNA: GTATATGTTAAAAAAAGAGAAGGTCGCATTATGGACAGACTTCGTGAATGGGAATTTGCTTAGAATTGTGAGTAGTTCTGAATTAGAAAAGTATGTGAAGGAAAGGCAGCTGTAAACGTATTGTGCCCTGGAGAGTTGTACACATGTTGAAATGTAATCTGGGCTTACCTGATCCATTTGGAGTGGATGTCACTGCCGAGTCTGTTCTCACATGGAACCATGTGTGTGGGGTTGCCAGCCTCACAGATACAATCAATCCTATTCCCCTCTGACATAAGGAACTCCTCTGGAGTGGCAGAGTCTTATCACAGAAGGCAGCCACCATTTCACCAAAACAAAAGTTCACGGCATTCAATTCCTTTTTCCTTTAGCTATTTATATATGCAGTACTCTCAGTCATATGCAGAAATACTTTTTTTTTTTAATTAATAGTTACAGGCTTGTTGGTCCAGTGGGATTTGGGTAGGGGGAGAAAGATACCTTCTAAAATGGATCAATAGAACCAAAATAATACAGCATGTTCTATAACCACAAGGAAATCAAATGATCCTGTCATGATTCCAGTTAGTCATAACTATGTTAGCAGTGCTAAATGCATTTTAGAAATGGTGACTTCTGTGGTTTTCCTAGCATTTGTCTCTAACAAATGGTGAAATAATTACTCATGGCCCTCTCTGCCATTGTCTTTCATTTTTTCACAGTGAAATTAGACCCCTTTACTTCACCATTCTGCCACTGCAAATTAAGTATAAAGAAAATAGCAAGAGTGTCCACACCAGTAGACAGTAAGCTTCTCTACCTGTAAGTGATGAAATCATAGCTAATGCACTTGCCATGGAGTTTTCAAGATGATTGGTGTCAGACAGTTTTCACTTTGTTTAAAAAGTGTTGGTGGCCTTTTGTGGTGGTGTTACAATCCTCTGGGGGCTTAGGAGGATGTTGATGCAACTTTTAGAAGCTTTTAATTTCAAAAACAACTCAAAAATCTGAAGGACAGTCATAGCTGCCACTCAGCCCCAGTTAGTCAAACCCCAGTGACCTTTGCCCCTGGTTGCCAAGGGCTTTGCAACATCAAGCAGGGAAATAAGGATCTGTCTGTTTAGTGGATACCGTGTATCCTTTAATAGACCAGGTAACAGTTCGTGTTAGTTTAGACTATTGTTTTGTACTGTACTTTCTTGGGTGGCAGAGGAAAGAAAAGTAAAACATT
# B2: SEQ_ID_#948 (nucleic acid, listed as Homo sapiens)
# DNA: AGAGGCGGGCTTCCCTCGGAAAACGGAGGGTTGAAACCCAGAAAGCTCCTCGGAGCCCTTCTGGGGTTCGGGCGATCTGGGCAGAGAACTCTCGGGTGGCAAGGAATTAAGGGCAGCGCGAACGACGGTCTCTAGACAAGTATGAAGCCTCCCCTGAGTGTGTCCGGCGCTCAGGGGGTGGACCGGGGTGTTGGTTTCAAGGAGGGGGCCATCGTTTGCACCACGGCGTCCAGAAATACTCATCCTTTGCCCTTCGGGGAGGCAACAGAGCAGCCAACTGACTGTTCTGGCCAAAGAGACTGGAGATCCAGTATCAGCAAGCTACTTTCTTGGTAAACCTCCATTTCCCAATGCTCATCTTTGTCCTCTACCCCCACCCATCCCAAGGCAAATGATGAAAACATCTATTGGATCCAGCCTTTGCTATCTTCTCCATGCTGCTCATAGTGGGTCTAGCAATGTCCCATTCTCGGTAATGTTTGGTAGGTCTAAAACATCCTCACGAAATGTTCCCCAAATGTTCTGCTCCAGCTGAGCAACTAATAACAATGGGAAGATGCAGAAAAAAAATGCATGGAGCATAATGTTAGTTTTGGGACTCGTCAGTGGCAACGTTTTAGAGATGCCATGAAGAATTCCTGGTAATAATCCTTCTTCCTACAGCATTTAGCAATGAATACTATGGGATTATGGCTAAAAGATGGTCAAGACTGCCTCAGCCATTAGGATCAGAATTCTAAGTTCCAAAGAAGAGCAAACTCAAGAGGATTTCCTCAGGCCTCTGACTATAGATGCTGCCTGGGGAGAACAGGTGCTACACTCAAAACATTCTCATTTTATTTATATCCTCCCTGAACTAGTACCCAACTCCATAACCCCAGACTCAAATAACAGAAATAAAAGCCATCTCACTGATTATAAGCTCTCTAGTTATTACAAAAATAAATAAGCATCAATCAACCAACAGGCATCAGAATGAGAAAATCACTGATTTGAGACATTCAGGCTGCAGGAAAAGAACACTTTTTGTTAATATGTAACTATATCTTCAGTAGTACAGAAAAATGAGAAGAACGAGAGTTCTTACCTGGATTTGCGGCTCACTTAAAGTAGAGCACCTGAGATGCTGGGAAATCATAAAGATAAATAACCAATCTAACAAATTCCTGCCATGAGACCAAAGTGATCCTTGACTACTCTATTAGTAAGCGACTCTGAGCCAAGAGTACGAACCTGTAAGTGGAGTGGTGGTTGGCCCATTAGAAATCTCTGAAAGATCTAAACATGACAGTTACCTTCCTACTGGACTCATACTTCTCAATTCCCTCTCCTAAAAGAATACTTTTGGGCTGGCCCCAGTGGCTCACACCTGTAATCTCGGCACTTTGGGAAGCCAAGGTGGGAGGATTGCTTGAGGACAAGAGTTTGAGACCAGCTCGGTGGAAACATAGCACCATCCATGTCTCTACC
# B3: SEQ_ID_#953 (nucleic acid, listed as Homo sapiens)
# DNA: TGGTTTCGGTCTATTTATCCAGGGACACCACAGCTTTGGAGGCAGCAAACATGCCCATTTGTTACTATTTGCAAAGATGGTGTACACCAAACATGGGCTTTCCGTAAACAAATTAAAAAGTAATAAAGTGGCCCCATCTGCATACTAGAGCAATGTGCTTCCATTTTAATGAAGCTTGCTATAGAAAAGCCATTTGATGGCTTGTCAAAAGCGTGAATGCCTGTGGCTGAACGTGGAAGTATGCTGTGGTGCAAAGACGTAGTCCTTTCTTCCTCCAGTATGCACGGGGCACCTGCCACACCTGCTGCAAGGACCTGGTCCTGCCCCTAGGCCATCTGCTACGCCAAGGAGACCCAGGTCTTTCCAGTTTCTACCAGGCCCTTTAATGCTCTATCCTGTGGCCCACCCAAGGTTGCAGAGCTGGTAAGCTCTGGAGGTTGAACACAGGCAGTCTGGGCAGAGTGCCTGCTCACTGTCCTGCCTCTCCT
# B4: SERPINB1 (nucleic acid, listed as Homo sapiens)
# DNA: GCTCGGAGCCCGGAGCGTGCCTCGGCGGCCTGTCGGTTTTCACCATGGAGCAGCTGAGCTCAGCAAACACCCGCTTCGCCTTGGACCTGTTCCTGGCGTTGAGTGAGAACAATCCGGCTGGAAACATCTTCATCTCTCCCTTCAGCATTTCATCTGCTATGGCCATGGTTTTTCTGGGGACCAGAGGTAACACGGCAGCACAGCTGTCCAAGACTTTCCATTTCAACACGGTTGAAGAGGTTCATTCAAGATTCCAGAGTCTGAATGCTGATATCAACAAACGTGGAGCGTCTTATATTCTGAAACTTGCTAATAGATTATATGGAGAGAAAACTTACAATTTCCTTCCTGAGTTCTTGGTTTCGACTCAGAAAACATATGGTGCTGACCTGGCCAGTGTGGATTTTCAGCATGCCTCTGAAGATGCAAGGAAGACCATAAACCAGTGGGTCAAAGGACAGACAGAAGGAAAAATTCCGGAACTGTTGGCTTCGGGCATGGTTGATAACATGACCAAACTTGTGCTAGTAAATGCCATCTATTTCAAGGGAAACTGGAAGGATAAATTCATGAAAGAAGCCACGACGAATGCACCATTCAGATTGAATAAGAAAGACAGAAAAACTGTGAAAATGATGTATCAGAAGAAAAAATTTGCATATGGCTACATCGAGGACCTTAAGTGCCGTGTGCTGGAACTGCCTTACCAAGGCGAGGAGCTCAGCATGGTCATCCTGCTGCCGGATGACATTGAGGACGAGTCCACGGGCCTGAAGAAGATTGAGGAACAGTTGACTTTGGAAAAGTTGCATGAGTGGACTAAACCTGAGAATCTCGATTTCATTGAAGTTAATGTCAGCTTGCCCAGGTTCAAACTGGAAGAGAGTTACACTCTCAACTCCGACCTCGCCCGCCTAGGTGTGCAGGATCTCTTTAACAGTAGCAAGGCTGATCTGTCTGGCATGTCAGGAGCCAGAGATATTTTTATATCAAAAATTGTCCACAAGTCATTTGTGGAAGTGAATGAAGAGGGAACAGAGGCGGCAGCTGCCACAGCAGGCATCGCAACTTTCTGCATGTTGATGCCCGAAGAAAATTTCACTGCCGACCATCCATTCCTTTTCTTTATTCGGCATAATTCCTCAGGTAGCATCCTATTCTTGGGGAGATTTTCTTCCCCTTAGAAGAAAGAGACTGTAGCAATACAAAAATCAAGCTTAGTGCTTTATTACCTGAGTTTTTAATAGAGCCAATATGTCTTATATCTTTACCAATAAAACCACTGTCCAGAAAAAAAAAAAAAAAAAAAA
# Test system: EE transcriptome
# Experiment: Genome-wide microarray transcript profiling of esophageal biopsies, EE patients vs normal individuals (EE transcriptome)
# Conditions: transcript level in esophageal biopsies of EE patients compared to normal individuals (NL); Affymetrix Human Genome U133 plus 2; p<0.01; >1 up-regulated, <1 down-regulated
# Experimental: Esophageal tissue obtained from patients previously diagnosed with EE was analyzed. Diagnosis was based on analysis of excised tissue from endoscopic biopsy. Tissues from patients with EE, as well as patients not having EE (controls) were subjected to genome-wide microarray transcript profiling (Affymetrix GeneChip). All work was performed at the Core facility at Children's Hospital Medical Center (Cincinnati Ohio).
# Briefly, RNA quality was first assessed using the Agilent bioanaiyzer (Agilent Technologies, Palo Alto Calif.). Only mRNA having a ratio of 28S/18S between 1.3 and 2 were subsequently used. RNA was converted to cDNA with Superscript choice for cDNA synthesis (Invitrogen, Carlsbad Calif.) and subsequently converted to biotinylated cRNA with Enzo High Yield RNA Transcript labeling kit (Enzo Diagnostics, Farmingdale N.Y.). After hybridization to the GeneChip (Affymetrix, Santa Clara Calif.), the chips were automatically washed and stained with streptavidin-phycoerythrin using a fluidics system. The chips were scanned with a Hewlett Packard GeneArray Scanner. Over 30,000 unique genes were screened.
# Levels of gene transcripts were determined from data image files, using algorithms in the Microarray Analysis Suite software (Affymetrix). Levels from chip to chip were compared by global scaling. Each gene was typically represented by a probe set of 16 to 20 probe pairs. Each probe pair consisted of a perfect match oligonucleotide and a mismatch oligonucleotide that contained a one base mismatch at a central position. Two measures of gene expression were used, absolute call and average difference. Absolute call is a qualitative measure in which each gene is assigned a call of present, marginal or absent, based on the hybridization of the RNA to the probe set. Average difference is a quantitative measure of the level of gene expression, calculated by taking the difference between […] of every probe pair and averaging the differences over the entire probe set. Data were normalized and an EE transcriptome gene list was created with results having p<0.01 (Welch t-test with or without false rate discovery) and ≥1.5-fold change.
# For evaluation of EE using clinical and/or physical assessment, biopsy tissues (obtained from the distal esophagus during routine endoscopy) were submerged in formalin for routine pathological analysis with hematoxylin and eosin staining. Diagnosis was established based on the maximum eosinophil count per high power field (hpf) and basal layer expansion according to method known in the art (e.g., established criteria in Rothenberg et al., Pathogenesis and clinical features of eosinophilic esophagitis. J Allergy Clin Immunol 108 (2001) 891; Attwood et al., Esophageal eosinophilia with dysphagia. A distinct clinicopathologic syndrome. Dig Dis Sci 38 (1993)109; Fox et al., Eosinophilic esophagitis: its not just kid's stuff. Gastrointest Endosc 56 (2002) 26, each of which is expressly incorporated by reference herein in its entirety. Normal individuals (NL), n=13, served as a control and were defined as having 0 eosinophils/hpf and no basal layer expansion. Individuals with EE (n=76) were defined as having >24 eosinophils/hpf and extensive basal layer hyperplasia (expansion to about >⅓ of epithelium).
# The data were analyzed by cluster analysis and ordered (standard correlation (A) and distance (B)) using Genespring software. […] Each column represented a separate individual and each line a gene. RNA from each patient was subjected to chip analysis using Affymetrix Human Genome U133 GeneChip plus 2.
row,Molecule,Fold Change
1,B1,0.62
2,B2,0.629
3,B3,0.627
4,B4,0.62
